Measured values published in paper PMC4551533, “Selection of DNA aptamers for ovarian cancer biomarker HE4 using CE-SELEX and high-throughput sequencing”.

Assays:
[1] = target: T1, HE4-GST (human) (UniProt Q14508); test: fluorescence anisotropy; conditions: TGK: 25 mM Tris, 192 mM glycine, 5 mM KH2PO4, pH 8.3, 25 C, no divalent cations; APCE 10 nM DNA, 1 mg/mL BSA; anisotropy 0.1 mg/mL BSA, HE4-GST 0-750 nM
T1 sequence: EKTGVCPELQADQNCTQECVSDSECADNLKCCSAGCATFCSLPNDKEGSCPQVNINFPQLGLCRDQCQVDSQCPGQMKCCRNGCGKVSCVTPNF

[2] = target: T2, HE4-GST (human, UniProt Q14508 31-124); test: fluorescence anisotropy; TGK: 25 mM Tris, 192 mM glycine, 5 mM KH2PO4, pH 8.3, 25 C, no divalent cations; APCE 10 nM DNA, 1 mg/mL BSA; anisotropy 0.1 mg/mL BSA, HE4-GST 0-750 nM; conditions: protein: commercial; tags: GST; label: 5' FAM (APCE); 5' TEX615 (anisotropy)
T2 sequence: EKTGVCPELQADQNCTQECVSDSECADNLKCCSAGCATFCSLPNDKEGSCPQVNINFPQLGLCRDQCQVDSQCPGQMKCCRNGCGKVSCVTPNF

[3] = target: T2, HE4-GST; test: affinity probe capillary electrophoresis; TGK: 25 mM Tris, 192 mM glycine, 5 mM KH2PO4, pH 8.3, 25 C, no divalent cations; APCE 10 nM DNA, 1 mg/mL BSA; anisotropy 0.1 mg/mL BSA, HE4-GST 0-750 nM; conditions: protein: commercial; tags: GST; label: 5' FAM (APCE); 5' TEX615 (anisotropy)
[4] = target: T2, HE4-GST; test: affinity probe capillary electrophoresis; discrepant with anisotropy; TGK: 25 mM Tris, 192 mM glycine, 5 mM KH2PO4, pH 8.3, 25 C, no divalent cations; APCE 10 nM DNA, 1 mg/mL BSA; anisotropy 0.1 mg/mL BSA, HE4-GST 0-750 nM; conditions: protein: commercial; tags: GST; label: 5' FAM (APCE); 5' TEX615 (anisotropy)

**Q.** For ATGGTCGCAAGAACTGAGAATTTAC [D3], which Kd [1] is on record?
**A.** Its Kd is 26000 nM.

**Q.** How did the Kd [2] turn out when TTATCGTACGACAGTCATCCTACAC (ssDNA) [A1] was run?
**A.** The Kd was 2200 nM.

**Q.** And the Kd [3]?
**A.** The Kd was 390 nM.

**Q.** Which results are given for CACAGTGCGTCACATTTAGGGCATT (ssDNA) [A3]?
**A.** Kd [2]: 9100 nM; Kd [3]: 500 nM

**Q.** CAGTGCGTGCTTATTGGCGTAGCGTC (ssDNA) [B10] was tested. Which Kd [2] did it give?
**A.** The Kd was 280 nM.

**Q.** What about the Kd [3] of the same molecule?
**A.** Its Kd is 870 nM.

**Q.** How did the Kd [4] turn out when CCGTCTTCTGCTTGAAAAAAAAAAA (ssDNA) [L1] was run?
**A.** Its Kd is 300 nM.
